Positions count from the first letter of the chain named.
Key:
[1] = target: T1, FBF-2 RBD (Caenorhabditis elegans, UniProt Q09312 164-575); assay: EMSA; no LST-1; EMSA: FBF-2 in 20 mM HEPES pH 7.4, 150 mM NaCl, 0.5 mM TCEP mixed 1:1 with 5 nM final RNA in 10 mM HEPES pH 7.4, 0.01% Tween 20, 0.1 mg/ml BSA, 0.1 mg/ml yeast; conditions: protein: recombinant; tags: none (His6-SUMO removed with TEV protease); label: 3'-Cy5
T1 sequence: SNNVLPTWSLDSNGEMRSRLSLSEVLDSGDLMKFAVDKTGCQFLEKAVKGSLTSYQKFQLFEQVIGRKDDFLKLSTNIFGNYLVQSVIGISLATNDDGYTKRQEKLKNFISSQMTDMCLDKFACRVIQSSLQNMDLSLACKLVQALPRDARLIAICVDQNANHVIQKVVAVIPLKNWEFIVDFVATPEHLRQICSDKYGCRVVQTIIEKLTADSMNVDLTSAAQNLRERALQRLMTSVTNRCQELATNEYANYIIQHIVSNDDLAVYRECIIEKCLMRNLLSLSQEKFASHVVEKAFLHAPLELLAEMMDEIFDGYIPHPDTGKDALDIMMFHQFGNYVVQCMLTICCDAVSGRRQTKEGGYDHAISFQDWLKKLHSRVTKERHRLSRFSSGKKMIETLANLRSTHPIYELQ

[2] = target: T2, FBF-2 RBD+CT Y479A (Caenorhabditis elegans, UniProt Q09312 164-632, Y479A); assay: as above; conditions: protein: recombinant; tags: none (His6-SUMO removed with Ulp1); label: 3'-Cy5
T2 sequence: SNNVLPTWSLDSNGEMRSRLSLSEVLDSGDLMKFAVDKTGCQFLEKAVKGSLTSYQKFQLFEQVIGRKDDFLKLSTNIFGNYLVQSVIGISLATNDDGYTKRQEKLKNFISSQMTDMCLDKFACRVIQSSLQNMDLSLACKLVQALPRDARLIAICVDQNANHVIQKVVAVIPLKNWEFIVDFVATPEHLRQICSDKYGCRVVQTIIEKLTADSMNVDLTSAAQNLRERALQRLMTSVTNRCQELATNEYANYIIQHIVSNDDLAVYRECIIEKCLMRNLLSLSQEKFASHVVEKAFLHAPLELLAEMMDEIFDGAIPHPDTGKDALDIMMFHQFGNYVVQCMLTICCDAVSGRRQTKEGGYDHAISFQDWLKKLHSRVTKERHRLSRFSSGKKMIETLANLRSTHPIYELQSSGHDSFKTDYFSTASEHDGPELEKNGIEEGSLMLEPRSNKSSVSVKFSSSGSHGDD

[3] = target: T3, FBF-2 RBD+CT L610A (Caenorhabditis elegans, UniProt Q09312 164-632, L610A); assay: as above; conditions: protein: recombinant; tags: none (His6-SUMO removed with Ulp1); label: 3'-Cy5
T3 sequence: T2 sequence with A316Y, L447A

[4] = target: T4, FBF-2 RBD+CT;LST-1 A peptide (Caenorhabditis elegans;Caenorhabditis …, UniProt Q09312;P91820 164-632;19-50, |); assay: EMSA; 150 uM LST-1 A; EMSA: FBF-2 in 20 mM HEPES pH 7.4, 150 mM NaCl, 0.5 mM TCEP mixed 1:1 with 5 nM final RNA in 10 mM HEPES pH 7.4, 0.01% Tween 20, 0.1 mg/ml BSA, 0.1 mg/ml yeast; conditions: protein: recombinant;recombinant; tags: none (His6-SUMO removed with Ulp1);none (His6-SUMO removed with Ulp1); copies: 1;1; label: 3'-Cy5
T4 sequence 1: T2 sequence with A316Y
T4 sequence 2: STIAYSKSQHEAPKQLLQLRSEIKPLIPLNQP

[5] = target: T2, FBF-2 RBD+CT Y479A; assay: EMSA; 50 uM LST-1 B present (Y479A disrupts LST-1 binding, no complex); EMSA: FBF-2 in 20 mM HEPES pH 7.4, 150 mM NaCl, 0.5 mM TCEP mixed 1:1 with 5 nM final RNA in 10 mM HEPES pH 7.4, 0.01% Tween 20, 0.1 mg/ml BSA, 0.1 mg/ml yeast; conditions: protein: recombinant; tags: none (His6-SUMO removed with Ulp1); label: 3'-Cy5

B1: gld-1 FBEa RNA (EMSA) (ssRNA)
RNA: AUCAUGUGCCAUAC
Kd [1]: 70 ± 23 nM | Kd [2]: 62 ± 14 nM | Kd [3]: 51 ± 26 nM | Kd [4]: 114 ± 10 nM | Kd [5]: 41 ± 6 nM

Reference: publication PMC10641069, “Intra- and inter-molecular regulation by intrinsically-disordered regions governs PUF protein RNA binding” (Nature Communications, 2023)
